This note sets out measurements from patent US12643935B2, “PD-L1 binding peptides” (UNIVERSITY OF SOUTHERN CALIFORNIA, priority 2020, dated 2026).

“Also recorded” adds a separate entry of the source.

Assay [1] has as its target T1, hPD-L1 (Homo sapiens, UniProt Q9NZQ7).
T1 construct: designed from A18 to T239 with a methionine added to the N-terminus; hexahistidine tag (C); made in house
The assay can be described thus: Surface plasmon resonance of mPD-1 on immobilized hPD-L1. Particulars: SPR, 25° C., one-site saturation binding model; read-out: dissociation constant (KD) hPD-L1/mPD-1. On the procedure:
In order to confirm that the expressed hPD-L1 was correctly folded, binding to mPD-1 was measured by SPR. The dissociation constant (KD) between recombinant hPD-L1 and PD-1 was determined to be 3.2±0.3 μM using a one-site saturation binding model (FIG. 7).
SPR analysis was performed on a Biacore T-100 at the USC Nanobiophysics core. E. coli expressed biotinylated hPD-L1 was immobilized onto a sensor chip SA (GE Healthcare Life Sciences) and different concentrations (from 1.5×10^−7 to 2.9×10^−5 M) of mPD-1 was flowed over the chip at a rate of 50 μL/min for 60 seconds in a buffer consisting of 50 mM HEPES-KOH pH 7.5, 150 mM NaCl, 0.05% (v/v) Tween-20 and 1 mg/mL BSA at 25° C. The response values were fit to a one-site saturation binding model in GraphPad Prism to obtain an equilibrium binding constant.
(Surface plasmon resonance follows binding to a sensor surface in real time, without labels.)

Assay [2] addresses T1, hPD-L1. The assay is described as follows: Radioactive competition assay: [35S]-SPAM binding to immobilized hPD-L1 with competitor. Particulars: 5 μM competitor. On the procedure: For radioactive competition assays, hPD-L1-immobilized streptavidin agarose beads were preincubated with the desired competitor for one hour at 4° C. followed by addition of the radiolabeled peptide for 1 h. The ratio of the counts remaining on the beads to the total counts added to the binding reaction was calculated to determine the percent bound.

B1: mPD-1: murine variant of PD-1, recombinant extracellular domain with HA tag and His tag (protein)
chain: MALEVPNGPWRSLTFYPAWLTVSEGANATFTCSLSNWSEDLMLNWNRLSPSNQTEKQAAFSNGLSQPVQDARFQIIQLPNRHDFHMNILDTRRNDSGIYLCGAISLHPKAKIEESPGAELVVTERILETSTRYPSGGYPYDVPDYALEHHHHHH
modifications: HA tag and His tag
notes: murine variant of PD-1, recombinant extracellular domain with HA tag and His tag
Take B1: the Kd in the assay with hPD-L1 [1] is roughly 3000 nM. The “effect on [35S]-SPAM binding to immobilized hPD-L1” value with hPD-L1 [2] is on record as “significantly inhibited; also recorded: disrupted”.
